The text below walks through data of patent publication US20240262919A1 (SHANGHAITECH UNIVERSITY, published 2024).

The chains are these.
B1: 3131 AM2-28 (Fab, V domains shown)
VH: EVQLVESGGGLVQPGGSLRLSCAASGFNLYYSSMHWVRQAPGKGLEWVASIYSSYGYTYYADSVKGRFTISADTSKNTAYLQMNSLRAEDTAVYYCARSSFSHGYGWYGLDYWGQGTLVTVSS
VL: DIQMTQSPSSLSASVGDRVTITCRASQSVSSAVAWYQQKPGKAPKLLIYSRSSDSSGVPSRFSGSRSGTDFTLTISSLQPEDFATYYCQQYGYHYAGLITFGQGTKVEIK
notes: Fab
B2: 3131 AM2-25 (Fab, V domains shown)
VH: EVQLVESGGGLVQPGGSLRLSCAASGFNLYYSSMHWVRQAPGKGLEWVASIYSSYGYTYYADSVKGRFTISADTSKNTAYLQMNSLRAEDTAVYYCARSSFSHGYGWYGLDYWGQGTLVTVSS
VL: DIQMTQSPSSLSASVGDRVTITCRASQSVSSAVAWYQQKPGKAPKLLIYSASSRDSGVPSRFSGSRSGTDFTLTISSLQPEDFATYYCQQYGYHYAGLITFGQGTKVEIK
notes: Fab
B3: 3131 AM2-26 (Fab, V domains shown)
VH: EVQLVESGGGLVQPGGSLRLSCAASGFNLYYSSMHWVRQAPGKGLEWVASIYSSYGYTYYADSVKGRFTISADTSKNTAYLQMNSLRAEDTAVYYCARSSFSHGYGWYGLDYWGQGTLVTVSS
VL: DIQMTQSPSSLSASVGDRVTITCRASQSVSSAVAWYQQKPGKAPKLLIYSESSLSSGVPSRFSGSRSGTDFTLTISSLQPEDFATYYCQQYGYHYAGLITFGQGTKVEIK
notes: Fab
B4: 3131 AM2-30 (Fab, V domains shown)
VH: EVQLVESGGGLVQPGGSLRLSCAASGFNLYYSSMHWVRQAPGKGLEWVASIYSSYGYTYYADSVKGRFTISADTSKNTAYLQMNSLRAEDTAVYYCARSSFSHGYGWYGLDYWGQGTLVTVSS
VL: DIQMTQSPSSLSASVGDRVTITCRASQSVSSAVAWYQQKPGKAPKLLIYSASSERSGVPSRFSGSRSGTDFTLTISSLQPEDFATYYCQQYGYHYAGLITFGQGTKVEIK
notes: Fab
B5: 3131 AM2-31 (Fab, V domains shown)
VH: EVQLVESGGGLVQPGGSLRLSCAASGFNLYYSSMHWVRQAPGKGLEWVASIYSSYGYTYYADSVKGRFTISADTSKNTAYLQMNSLRAEDTAVYYCARSSFSHGYGWYGLDYWGQGTLVTVSS
VL: DIQMTQSPSSLSASVGDRVTITCRASQSVSSAVAWYQQKPGKAPKLLIYSESSLYSGVPSRFSGSRSGTDFTLTISSLQPEDFATYYCQQYGYHYAGLITFGQGTKVEIK
notes: Fab
B6: 3131 AM2-36 (Fab, V domains shown)
VH: EVQLVESGGGLVQPGGSLRLSCAASGFNLYYSSMHWVRQAPGKGLEWVASIYSSSGSTSYADSVKGRFTISADTSKNTAYLQMNSLRAEDTAVYYCARSSFSHGYGWYGLDYWGQGTLVTVSS
VL: DIQMTQSPSSLSASVGDRVTITCRASQSVSSAVAWYQQKPGKAPKLLIYSASSLYSGVPSRFSGSRSGTDFTLTISSLQPEDFATYYCQQYGYHYAGLITFGQGTKVEIK
notes: Fab
B7: 3131 AM2-33 (Fab, V domains shown)
VH: EVQLVESGGGLVQPGGSLRLSCAASGFNLYYSSMHWVRQAPGKGLEWVASIYSSYGHTSYADSVKGRFTISADTSKNTAYLQMNSLRAEDTAVYYCARSSFSHGYGWYGLDYWGQGTLVTVSS
VL: DIQMTQSPSSLSASVGDRVTITCRASQSVSSAVAWYQQKPGKAPKLLIYSASSLYSGVPSRFSGSRSGTDFTLTISSLQPEDFATYYCQQYGYHYAGLITFGQGTKVEIK
notes: Fab
B8: 3131 AM2-32 (Fab, V domains shown)
VH: EVQLVESGGGLVQPGGSLRLSCAASGFNLYYSSMHWVRQAPGKGLEWVASIYSSYGYTYYADSVKGRFTISADTSKNTAYLQMNSLRAEDTAVYYCARSSFSHGYGWYGLDYWGQGTLVTVSS
VL: DIQMTQSPSSLSASVGDRVTITCRASQSVSSAVAWYQQKPGKAPKLLIYSSSSVYSGVPSRFSGSRSGTDFTLTISSLQPEDFATYYCQQYGYHYAGLITFGQGTKVEIK
notes: Fab

One test has as its target T1, human IL-18Rβ ECD Fc fusion (118-AP-100, R&D Systems) (human, UniProt O95256 20-356).
T1 construct: Bought protein; also called hIL-18Rβ; recombinant human IL-18Rb; not shown: Fc tag of the bought fusion protein, not described
T1 sequence: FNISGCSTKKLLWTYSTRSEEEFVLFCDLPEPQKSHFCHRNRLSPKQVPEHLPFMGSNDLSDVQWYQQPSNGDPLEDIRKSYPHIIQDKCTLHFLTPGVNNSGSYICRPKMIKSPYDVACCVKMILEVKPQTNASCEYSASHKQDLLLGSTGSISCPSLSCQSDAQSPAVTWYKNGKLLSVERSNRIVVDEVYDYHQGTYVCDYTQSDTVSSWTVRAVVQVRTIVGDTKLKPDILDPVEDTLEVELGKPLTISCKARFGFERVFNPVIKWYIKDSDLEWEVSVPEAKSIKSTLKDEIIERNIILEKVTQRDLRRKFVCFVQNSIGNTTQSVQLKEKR
Description: ELISA on recombinant human IL-18Rβ, normalised OD 450 nm, Fab with PBS or with saturating IgG 3131 [middle plot]. The text has this:
(§1) The results are presented in FIG. 9, in which the binding signals for purified. […] Error bars represent standard deviation of replicate measurements.
(In general: ELISA stands for enzyme-linked immunosorbent assay.)
Regarding B1, the binding result is listed as “binds”.
On the same count and under the same terms, then B2, with “binds”; and B3, with “binds”; and B4, with “binds”.
As to B5, the binding result was “binds”.

For the next test, the target named is T1, human IL-18Rβ ECD Fc fusion …. In words: ELISA on recombinant human IL-18Rβ, normalised OD 450 nm, Fab with PBS or with saturating IgG 3131 [bottom plot].
From the text: as §1
As for B6, the binding result is “binds”.
Still for that read-out and setting: then B7, with “binds”; and B8, with “binds”.
